Measured values from the DeepSol protein solubility set.

Assay: soluble on expression in E. coli; label from the status in PepcDB or PDB records
With “GHELSAIIPRSSWLAQKPMDEPLPLQLPVKYVVILHTATESSEKRAINVRLIRDMQSFHIESRGWNDIAYNFLVGCDGNIYEGRGWKTVGAHTLGYNRISLGISFIGCFMKELPTADALNMCRNLLARGVEDGHISTDYRLICHCQCNSTESPGRRLYEEIQTWPHFYNIEEEEQ” the “soluble on expression in E. coli” value was “soluble”.
In the case of “MQFPSSYWIESTQLPTFPPLSENIKTKVAVIGAGITGITTAYLLAKEGIDVVLIDSGLILNGTTGHTTAKITAQHDLIYDELINHFGMEKAGLYYESNNHALQFINETVQTYKIDCNFSNEDSYLYTTTDKGLRNLSKEYEAYQKLNIPCDYVQSLSIPIPVQSALVMKNQAQFHPLLYLKTLLAKFVEMGGKVYEQTTAMDVEKGDSPQIITKEGHRITCEYVVSCSHFPLEHHHHHH”, the “soluble on expression in E. coli” value is reported as “not soluble”.
In the case of “NPYETFRIADELRRELVGDTVTYVVNRNINFTDICINDCKFCSFRNRKKYLLSLDEIKQKVEEAVEFGCTELCIQGGLLPDADLDFYLSILQAVRDVDKKIHIHAFSPMEVVHAARNSGMTVEEVLKELKKEGLGSMPGTAAEILDDSIRALICPRKLKTAEWVEVIKTAHRVGIPTTATIMYGHIDTWEHRINHLLLIKKIQQETGGITELIPLPFMSKNNELGRYAKGSSGFDDLLMIAIARILLYPEIKNIQASWVKMGQKLAQAALHVGANDLGGTLMEENISKSAGATSGEFMHPEELRELIKIAGRVPKQR”, the “soluble on expression in E. coli” value is reported as “not soluble”.
For “MGSDKIHHHHHHMKKKSMIVLTSAFVLLSAFSCGGGGKATGTNEQSEKVVVNVPQFDADSAYLYVKNQVDFGPRVPNTKEHVACGNYLAGKLEAFGAKVTNQYADLIAYDGTLLKARNIIGSYKPESKKRIALFAHWDTRPWADNDADEKNHHTPILGANDGASGVGALLEIARLVNQQQPELGIDIIFLDAEDYGTPQFYEGKHKEEAWCLGSQYWSRNPHVQGYNARFGILLDMVGGENSVFLKEGYSEEFAPDINKKVWKAAKKAGYGKTFIDERGDTITDDHLFINRLARIKTIDIIPNDPETGFPPTWHTIHDNMDHIDKNTLKAVGQTVLEVIYNEK”, the “soluble on expression in E. coli” value was “not soluble”.
In the case of “MGSDKIHHHHHHMRRDVFIETRNVMDFRQKVRALEDFSGEPGFALVFGQAGRGKTETARHYHAMNGGIFLRVMQGWSQCAFLQELCFQVCGLRPRSSATCKAKIIEALDSMPQTLFVDEADRLHVDRVEDLRDVFDLTSSTVVLIGEQELRGLLSTRRRIWSRVKQVVEFGPVAEEDVAILGDEAAGLDIAPEACSQIVRLADGDFRLVWSFIHQLELTAKTHGIQQINTELVARVSKLVASWRQQ”, the “soluble on expression in E. coli” value is reported as “not soluble”.
In the case of “MSLQPAPFLILDDDDVFAQTLARALTRRGFAPQIAHTGGEALSLARQTPFAYVTVDLHLAASDRGLMPHGGTDSGLHWIAPLRQALPEARMLVLTGYASIATAVQAVKLGADEYLAKPANVDSILLALQVGVSEAVAEQTMENPAPLSVARLEWEHIQRVLSEHGGNISATARALNMHRRTLQRKLGKRPVAEGHHHHHH”, the “soluble on expression in E. coli” value is reported as “soluble”.
With “MGSDKIHHHHHHMTDWHFYEPARGHALRHDPLNAIVAPRPIGWISTISSDGVRNLAPYSFFNLFSYKPPIVGFCSLGAKDSLANARDTGEFVWNLATRPLVEAMNASAAMVPAHVDEFELAKLETLPSAKVRPARVAASPVQFECVVTQIVQLEAQGGAALPAWLVLGEAVAIHIDRQLITNGVYQTAQARPILRGGGPADYFEIGAGQLFTLERPGD” the “soluble on expression in E. coli” value was “not soluble”.
With “MGSDKIHHHHHHMLGASQPYDLGPGIRRGSRGKGGAMTQIPNHDPLSDWGLPGWIYTSERFFKEEQDKVFRPSWQIVCHLNDIPKAGDFHTFDFIGESLVVVRSKDGGVRAFANVCRHRGARLLDGPVGRCGGRIVCPYHAWTYDLEGRLIGVPMRDDYPALDMAKEGLATIEVEVWRGFVFVRLEGDGPSVATMMAPYEDEVAHYRFEELQPFGRVTLRPRAVNWKNISDNYSDGLHIPVAHPGLTRLFGKGYGVEAEAYVDKMWGQLIDEPSESPSERLYQDILPDVAHLPGDRKRLWTYFKLWPNFAFDIYPDQVDFMQFIPISAEQTMIREIAYALPDDRREMKAARYLNWRINRQVNTEDTELVARVQQGMASRTFTAGPLATSEVSLRSFGRKMRALIPESRMPRPPEGW” the “soluble on expression in E. coli” value was “not soluble”.
